Assay results: US12318456B2, “Therapeutic nanoparticles containing argonaute for microRNA delivery and compositions and methods using same” (KOC UNIVERSITESI, priority 2018, dated 2025)

Legend:
[1] = Hydrodynamic properties of SPIONs by dynamic light scattering; format: physicochemical; conditions: medium PBS; for HDR Z-average (hydrodynamic size): dynamic light scattering
Protocol: Hydrodynamic properties of SPIONs were measured after each conjugation step to monitor colloidal stability (Table 2).

[2] = system: miR-376b; assay: Flag immunoprecipitation of AGO2 and its domains, miRNA level by Taqman QPCR; format: binding; conditions: flag tagged proteins overexpressed in HEK293T cells, immunoprecipitated with flag beads
Description: The miRNA is anchored in AGO2 protein and makes several kinks and turns along the binding groove (Elkayam et al. Cell. 2012. 150:100-110). A binding pocket composed of residues from PAZ and PIWI domains as previously observed interacts with miRNA (Boland et al. EMBO Rep. 2010. 11:522-527; Lingel et al. Nat Struct Mol Biol. 2004. 11:576-577; Schirle et al. Science. 2014. 346:608-613; Wang et al. Nature. 2008. 456:209-213). To determine which domain of AGO2 protein have the key role in miRNA binding affinity, flag tagged AGO2 protein and its domains, PAZ and PIWI, were overexpressed in HEK293T cells in the presence or absence of miR-376b overexpression and they immunoprecipitated with flag beads. […] It can be concluded that each domain of AGO2 protein is essential for the highest binding affinity (FIG. 10).

Row | miRNA binding affinity (miR-376b) [2] | Substance | HDR Z-average (hydrodynamic size) [1] | PDI [1] | Zeta Potential [1]
1 |  | SPION/AGO2: AGO2 protein covalently attached to SPION/PAA via amide bond (EDC/NHS) | 20 nm | 0.43 | −23 mV
2 | partial role | PAZ: flag tagged AGO2 fragment, aa1-480 |  |  | 
3 | greater affinity | full length AGO2 protein: flag tagged full length Argonaute-2 protein overexpressed in HEK293T cells |  |  | 
4 |  | SPION/AGO2/PEG-MI: SPION/AGO2 reacted with NH2-PEG-Mal (2000 Da) linker | 30 nm | 0.59 | −21 mV
